# Laboratory results as given in paper PMC11813886, “Functional and structural characterization of mouse Factor H-related B protein unveils a novel dimerization domain shared by FHR-B and FH” (Frontiers in Immunology, 2025).
# B1: human FHR-1 (natural protein, UniProt Q03591 19-330, looked up)
# chain: EATFCDFPKINHGILYDEEKYKPFSQVPTGEVFYYSCEYNFVSPSKSFWTRITCTEEGWSPTPKCLRLCFFPFVENGHSESSGQTHLEGDTVQIICNTGYRLQNNENNISCVERGWSTPPKCRSTDTSCVNPPTVQNAHILSRQMSKYPSGERVRYECRSPYEMFGDEEVMCLNGNWTEPPQCKDSTGKCGPPPPIDNGDITSFPLSVYAPASSVEYQCQNLYQLEGNKRITCRNGQWSEPPKCLHPCVISREIMENYNIALRWTAKQKLYLRTGESAEFVCKRGYRLSSRSHTLRTTCWDGKLEYPTCAKR
# notes: human factor H-related protein 1 (FHR-1); also called hFHR-1
# Target: the molecule itself
# Assay: AUC; sedimentation velocity, 48000 rpm, protein in PBS pH 7; c(s) distributions with SEDFIT; dimer to monomers
protein,measurement,value
B1,stoichiometry N,2
